Earlier results on one substance are cited in article PMC4899099.

The target of the series is Carboxypeptidase E (UniProt P04836).
UniProt P04836, sequence (P04836 42-475): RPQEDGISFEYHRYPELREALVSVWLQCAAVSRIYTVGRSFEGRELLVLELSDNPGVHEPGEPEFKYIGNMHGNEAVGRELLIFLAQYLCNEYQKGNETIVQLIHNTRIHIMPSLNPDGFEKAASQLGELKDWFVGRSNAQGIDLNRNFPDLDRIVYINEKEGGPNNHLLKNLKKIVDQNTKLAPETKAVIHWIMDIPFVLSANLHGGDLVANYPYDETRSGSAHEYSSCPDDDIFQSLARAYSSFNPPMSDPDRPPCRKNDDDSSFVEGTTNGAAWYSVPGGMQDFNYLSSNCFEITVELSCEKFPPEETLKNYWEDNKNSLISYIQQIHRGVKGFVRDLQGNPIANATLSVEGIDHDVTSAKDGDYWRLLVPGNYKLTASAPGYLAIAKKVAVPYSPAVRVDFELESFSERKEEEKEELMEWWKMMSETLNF

One may read the Kd as the concentration at which binding is half-saturated. N-POMC(1-26) 1-26 (from UniProt P01190): the Kd is 6 µM.
